assay: yeast display, Sf9 membrane polyspecificity reagent, FACS + sequencing; frameworks hold sequencing errors
Procedure, shortened: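 Galactose-induced (36–48 hours) yeast carrying a synthetic nanobody display library were exposed to 10% biotinylated, detergent-solubilized Sf9 membrane reagent at 4 °C for 1 hour. FACS followed streptavidin microbead enrichment, using low and high (top ~1%) gates for expression (anti-HA) and reagent binding (streptavidin). Colony PCR, MiSeq 2 × 250 sequencing and CDR-length filtering followed. Labels for polyreactivity reflect the gate of origin.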

Sequence | polyreactivity (PSR sort gate)
QVQHVESGGGLDQAGGRLRLSCAASGFTFARNAMGWYRQAPGKDRELVAAINRSGGSTYYADSVKGRFTISRDNAKNTVYLQMNSLKPEDTAVYYCNAPYAQFTSGYDYWGQGTQVTVSS | high polyreactivity
QVQHVESGGGLDQAGGSLRLRCAAYGFTFSFYAMGWYRQEPGKERELVAAISYSGGITYYADSVKGRFTISRDNAKNTVYLQMNSLKPEDTAVYYCAAVPYYSKGSSLYNSGNNYWGQGTQVTVSS | low polyreactivity
QVQHVESGGGLDQAGGSLRLSCAASGSILTRYVMGWYRQAPGKERELVAAISQRGGSTYYADSVTGRFTISRDTAKYTVFLQMNSLKPEDTAVYYCAAETRVTSRRRFDYWGQGTQVTVSS | high polyreactivity
QVQHVESGGGLEQARGSLRLTCAASGRTFRYYAMAWYRQAPGKERELVASISDGGSTNYADSVNGRFTITRDNAKNTVYLQMNRLKPEDTAVYYCNSKCYVWYLYDEFGYWGQGTQVTVSS | low polyreactivity
QVQHVESGGGLGQAGGSLRLSCAASGRIFDEYALGSYRQAPGKERELVAAISLIGASTYYADSVKGRFTISRDTAKNTVYLQMNSQHPEDTAVYYCAAEYAFVVPGYYREVYYWGEGTQVTVSS | low polyreactivity
QVQHVESGGGLGQARRSLRLSCAASGTIINANAMGWDRQAPGKERELVASISGGAGSTYYADSVKGRFTISRDNAKNTVYLQMNSLKPEDTAVYYCAADRPYRYDYWGQGTQVTVSS | low polyreactivity
QVQHVESGGGLLQAGGSLRLSCAASGGTFTPNVMGWYRQAPGKVRELVAAIDDSGSRTYYADSVKGRFTISRDYAKNTVYLQMNSLKPEDTAVYFCAVFWYGTYPMYYWGQGTQVTVSS | low polyreactivity
QVQHVESGGGLLQAGGSLRLSSAATGSTNAMGWYRQAHGKERELVAAISRRGGSTYYADSVKGRFTISRDNAKKTVYLQMFSLKPEDTAVYYCAAPYSTFSYVYWGQGTQLTVSS | high polyreactivity
QVQHVESGGGLVQAGASLRLSCAASGLTFYRYALGWYRQARGNERELVAAITSGTRTYYADSVKGRFTISRDNAKNTVYLQMYSLKPEDTAVYYCAASWQTRTYQSRYYYWGQGTQVTVSS | high polyreactivity
QVQHVESGGGLVQAGGILRLSSAASGSTFVKNGMGWSRQAPGKERELVAAISGRRGSTYYADSVKGRFTISRDNAKNTVYLQMNSLKPEDTAVYYCNKAYSVAYTYNYWGQGTQVTVSS | high polyreactivity
QVQHVESGGGLVQAGGRLRLSCAASGRIFGGYTMGWYRQAPGKERELVAAINSGGSTYYADSVKGRFTISRDNAKNTVYLQMNCLKPEDTAVYYCAKVRSYFGKYGYGYWGQGTQVTVSS | high polyreactivity
QVQHVESGGGLVQAGGRLRLSCAASGRTFPRYAIGLYRQAPGKERELVAAISVLAGITYYADSVKGRFTISRDNAKNTVYLQMNSLKPEDTAVYYCAKDHWTTSYDEGDYWGQGPQVTVSS | low polyreactivity
QVQHVESGGGLVQAGGRLRLSCAASGSIFVAYAMGWSRTAPGKERELVAAITYSAGSTYYADSVKGRITISRDNAKNTVYLQMNSLKPEDTAVYYCAADAMVFSFIGYEYWGQGTQVTVSS | low polyreactivity
QVQHVESGGGLVQAGGSLLLSCAASGSITVSYMGWYRQAPGKERELVAAISFSGASTYYADSVKGRFTISRDDAKNTVYLQMNSLKPEDTAVYYCAAEYVIYYWFEWLDLDYWGQGTQVTVSS | high polyreactivity
QVQHVESGGGLVQAGGSLRFSCAASGFIFIRNGMGWYRQAPGKERELVAAISARGGSTYYADSVKGRFTISRDNAKNTVYLQMNSLKPEDTALYYCAAYRPRKYDYWGQGTQVTVSS | high polyreactivity
QVQHVESGGGLVQAGGSLRLICAASGFSFILYAMGWYRQARGKERELVAAISSSGGRRYYADSVKGRFTISRDNANNTVYIQMNSLKPEDTAVYYCNAVRTVNDYHYDYWGQGTQVTVSS | high polyreactivity
QVQHVESGGGLVQAGGSLRLICAASGSTFRGYAMGWYRPAPGKERELVAAITSSGGSTYYADSVKGRFTISRDNAKNTVYLQMNSLKPEDTAVYSCAAASRRFGLYGYWGQGTQVTVSS | high polyreactivity
QVQHVESGGGLVQAGGSLRLRCAASGRTFGQNTMGWSRQAPGKERELVAAISWSGDSTYYADSVKGRFTISRDNAKNTVYLQMNSLKTEDSAVYYCAADPYNYYVSGYDYWGQGTQVTVSS | low polyreactivity
QVQHVESGGGLVQAGGSLRLSCAASGFIFDRYAMGWYRQAPGKERELVAAISSGGSTYYADSVKGRFTISRDNAKNTVYLQMNSLKPEDTAVYYCAAESWLNFIYEYDYWGQGTQVTVSS | low polyreactivity
QVQHVESGGGLVQAGGSLRLSCAASGFIFRRNVMGWYRQAPGKERELVAAISNSGGSTYYADSVKGRFTISRDNAKNTVYLQMNSLKPEDTAVYYCAAVYSYWGRYFEYGYWGQGTKVTVSS | high polyreactivity
QVQHVESGGGLVQAGGSLRLSCAASGFIFSKYAMGWYRPAPGKERELVAAITRSGGRTYYADSVKGRFTISRDNAKNTVYLQMNSLKPEDTAVYYCAASWLYFGRDYWGQGTQVTVSS | high polyreactivity
QVQHVESGGGLVQAGGSLRLSCAASGFIFTAYAMGWYRQAPGKERELVAGIRSGSSTYYADSVKGRFTISRDNAMNTVYLQMNSLKPEDTAVYYCNAEKYNFIYAYEYWGQGTQVTVSS | low polyreactivity

Sequence | polyreactivity (PSR sort gate)
QVQHVESGGGLVQAGGSLRLSCAASGFIFWKNAMGWYSQAPGKERELVAAITVTGASTYYADSVKGRFTISRDNAKNTVYLQMNSLKPEDTAVYYCAAKTLSVGYVDPDYGRDYWGQGTQVTVSS | low polyreactivity
QVQHVESGGGLVQAGGSLRLSCAASGFIYSTNAMGWYRQAPGKERELVATIRSGGSTNYADSVKGRFTISRDNAKNTVYLQMNCLQPEDTAVYYCNVDDTSWTTSGGRFGQVESDYWGQGTQVTVSS | low polyreactivity
QVQHVESGGGLVQAGGSLRLSCAASGFTFLKNAMGWYRQAPGKERELVAAITSSGGRTYYADSVKGRFTISRDNAKNTVYCQMISLKPEDTAVYYCNKGPLPGYDYWGQGTQVTVSS | high polyreactivity
QVQHVESGGGLVQAGGSLRLSCAASGFTFYTYAMGWYRPAPGKERELVAAITSSGGSTYYADSVKGRFTISRDNAKNTVYLQMNSLKPEDTAVYYCNDRVRTQQRWVDYWGQGTQVTVSS | high polyreactivity
QVQHVESGGGLVQAGGSLRLSCAASGFTYFSNAMGWYREAPGKERELVASITNDGSTYADSVKGRFTISRDNAKNTVYLQMNRLKAEDTAVYYCAARFPKWRYSPRTGERFDYWGQGTQVTVSS | low polyreactivity
QVQHVESGGGLVQAGGSLRLSCAASGGIFRFYAMGWYRQAPGKERELVARITSSGGGTYYADSVKGRFTISRDNAKNTVYLQMNSLKPEDTAVSYCAALVYSSYPAGWYDYWGQGTQVTVSS | high polyreactivity
QVQHVESGGGLVQAGGSLRLSCAASGGTFVWYAMGWYRQAPGKERELVAAISSSGGRTYYADSVKGRFTISRDNAKNTVYLQMNSLKPEDTAVYYCNAAPYYVLYLLWSSNTYDYWGQGTQVTVSS | high polyreactivity
QVQHVESGGGLVQAGGSLRLSCAASGIIFGTNALGWYRQAPGKERELVAYITSGGSTYADSVKGRFTISRDNAKNTVYLQMNSLKPEDTAVYYCAAYVFWAFYEYDYWGQGTQVTVSS | low polyreactivity
QVQHVESGGGLVQAGGSLRLSCAASGIIFTTYAMGWYRQAPGKERELVAAISRSGSTYYADSVKGRFTISRDNAKNTVYLQMNSLKPEDTAVYYCASGRWRWRGYDYYWGQGSQVTVSS | high polyreactivity
QVQHVESGGGLVQAGGSLRLSCAASGITFFYYAMGWYRQAPGKERELVAAISTSGGRTYYADSVKGRFTISRDNAKNTVYLQMNSLKPEDTAVYYCADQSGWLRYYYWGQGTQVTVSS | high polyreactivity
QVQHVESGGGLVQAGGSLRLSCAASGLIFSRYVMGWYRQAPGKERELVAAISRSGGSTYYADSVKGRFTISRDNAKNTVYLQMNSLKPEDTAVYYCNAGRRTGRYGYWGQGTQVTVSS | high polyreactivity
QVQHVESGGGLVQAGGSLRLSCAASGLTFSYNAMGWYRQAPAKERELVAAIRSGGSTNYADSVKGRFTISRDNAKNTVYLEMYSLKPVDSAVYFCADKSVTGVFRYYYWGQGSQVTVSS | low polyreactivity
QVQHVESGGGLVQAGGSLRLSCAASGLTFYSYAMGWYRQAPGKERELVATISGGGSTTYADSVKGRFTISRDNAKNTVYLQMNSLKPEDTAVYYCAARSNHYRGWPVPLGYWGQGTQVTVSS | high polyreactivity
QVQHVESGGGLVQAGGSLRLSCAASGRIFDTYTMGWYRAAPGKVRELVAAITSGGSTYYADSVKGRFTISRDNATNTVYLQMNSLKPEDTAVYYCAARYRSIIRYYYWGQGTQVTVSS | high polyreactivity
QVQHVESGGGLVQAGGSLRLSCAASGRIFHFNAMGWYRQAPGKERELVAAISYRGGSTYYADSVKGRFTISRDNAKNTVYLQMNSLKPEDTAVYYCAAYTRHSARTYYYSYDYWGQGTQVTVSS | high polyreactivity
QVQHVESGGGLVQAGGSLRLSCAASGRIFNRYAMVWYRQAPGKERELVAAISASGDNTYYADSVKGRFTISRDNAKNTVYLQMISLKPEDTAVFYCAARYYTYLHFSMYYWGQGTQVTVSS | high polyreactivity
QVQHVESGGGLVQAGGSLRLSCAASGRIFRDNAMGRNRQAPGKEREVVAAISRRGGSTYYADSVKGRFTISRDNAKNTVYLQLNSLKPEDTAVYYCNKTTHSRTFRYDYWGQGTQVTVSS | low polyreactivity
QVQHVESGGGLVQAGGSLRLSCAASGRIFWDNASGWYRQAPGKVSELHAAISDSVVITYFADSVKGRFTISRDTAKYTVYLQMNSLKPEDTAFYYCAAHKRCTVYLSSFWMDYWGQGNQVTVSS | low polyreactivity
QVQHVESGGGLVQAGGSLRLSCAASGRIFYAYTMGWYRQAPGKERELGAAISRSGSTYYADSVKGRFTISRDNAKNPVYLQMNSLKPEDTAVYYCAADVTGGRKYDYWGQGTQVTVSS | low polyreactivity
QVQHVESGGGLVQAGGSLRLSCAASGRIIPGNAMGWYRQAPGKERDLVAAISYGGGSTYYADSVKGRFTISRDNAKNTVYLQMNSLKPEATAVYYCNAGWIRNYGFSIVTYDYWGQGTQVTVSS | low polyreactivity
QVQHVESGGGLVQAGGSLRLSCAASGRTFFENAMGWYRQAPGKEMELVAAISWDGGTTYADSVKGRFSISRDNAKNTVYLQMNSLKPEDTAVYYCNAEVRSNDARGDNDYCGQGTQVTVSS | low polyreactivity
